Results taken from PMC12416549 (2024).

T1: TNFR1 (Homo sapiens, UniProt P19438)
T1 chain: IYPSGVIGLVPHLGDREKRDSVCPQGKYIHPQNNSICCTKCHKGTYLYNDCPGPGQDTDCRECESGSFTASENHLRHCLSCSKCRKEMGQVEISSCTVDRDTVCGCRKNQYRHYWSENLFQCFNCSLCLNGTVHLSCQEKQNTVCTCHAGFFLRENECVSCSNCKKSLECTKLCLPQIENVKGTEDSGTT


Molecular target: T1, TNFR1
Assay: yeast display SC50

Binder | apparent Kd (screen) [nM]
E18Y (designed binder) MTLQELLREEALRRAEAYAFRYALELLAEKFPEQKEYLLDLAEEIESQIRSLSGVDVEDVRKFLDKEWAWVKELLAEHPAELAEVEAARAARLAELRAEVEAKVAA | 0.539
L74A (designed binder) MTLQELLREEALRRAEAEAFRYALELLAEKFPEQKEYLLDLAEEIESQIRSLSGVDVEDVRKFLDKEWAWVKEALAEHPAELAEVEAARAARLAELRAEVEAKVAA | 1.69
F20K (designed binder) MTLQELLREEALRRAEAEAKRYALELLAEKFPEQKEYLLDLAEEIESQIRSLSGVDVEDVRKFLDKEWAWVKELLAEHPAELAEVEAARAARLAELRAEVEAKVAA | 22.2
G54V (designed binder) MTLQELLREEALRRAEAEAFRYALELLAEKFPEQKEYLLDLAEEIESQIRSLSVVDVEDVRKFLDKEWAWVKELLAEHPAELAEVEAARAARLAELRAEVEAKVAA | 0.653
A23K (designed binder) MTLQELLREEALRRAEAEAFRYKLELLAEKFPEQKEYLLDLAEEIESQIRSLSGVDVEDVRKFLDKEWAWVKELLAEHPAELAEVEAARAARLAELRAEVEAKVAA | 0.539
I49Y (designed binder) MTLQELLREEALRRAEAEAFRYALELLAEKFPEQKEYLLDLAEEIESQYRSLSGVDVEDVRKFLDKEWAWVKELLAEHPAELAEVEAARAARLAELRAEVEAKVAA | 2.48
E73P (designed binder) MTLQELLREEALRRAEAEAFRYALELLAEKFPEQKEYLLDLAEEIESQIRSLSGVDVEDVRKFLDKEWAWVKPLLAEHPAELAEVEAARAARLAELRAEVEAKVAA | 5.31
K30C (designed binder) MTLQELLREEALRRAEAEAFRYALELLAECFPEQKEYLLDLAEEIESQIRSLSGVDVEDVRKFLDKEWAWVKELLAEHPAELAEVEAARAARLAELRAEVEAKVAA | 0.539
I49Q (designed binder) MTLQELLREEALRRAEAEAFRYALELLAEKFPEQKEYLLDLAEEIESQQRSLSGVDVEDVRKFLDKEWAWVKELLAEHPAELAEVEAARAARLAELRAEVEAKVAA | 0.368
E5G (designed binder) MTLQGLLREEALRRAEAEAFRYALELLAEKFPEQKEYLLDLAEEIESQIRSLSGVDVEDVRKFLDKEWAWVKELLAEHPAELAEVEAARAARLAELRAEVEAKVAA | 0.653
A17S (designed binder) MTLQELLREEALRRAESEAFRYALELLAEKFPEQKEYLLDLAEEIESQIRSLSGVDVEDVRKFLDKEWAWVKELLAEHPAELAEVEAARAARLAELRAEVEAKVAA | 0.956
F63A (designed binder) MTLQELLREEALRRAEAEAFRYALELLAEKFPEQKEYLLDLAEEIESQIRSLSGVDVEDVRKALDKEWAWVKELLAEHPAELAEVEAARAARLAELRAEVEAKVAA | 1.27
K62M (designed binder) MTLQELLREEALRRAEAEAFRYALELLAEKFPEQKEYLLDLAEEIESQIRSLSGVDVEDVRMFLDKEWAWVKELLAEHPAELAEVEAARAARLAELRAEVEAKVAA | 0.718
F31H (designed binder) MTLQELLREEALRRAEAEAFRYALELLAEKHPEQKEYLLDLAEEIESQIRSLSGVDVEDVRKFLDKEWAWVKELLAEHPAELAEVEAARAARLAELRAEVEAKVAA | 1.4
A28H (designed binder) MTLQELLREEALRRAEAEAFRYALELLHEKFPEQKEYLLDLAEEIESQIRSLSGVDVEDVRKFLDKEWAWVKELLAEHPAELAEVEAARAARLAELRAEVEAKVAA | 7.78
R21N (designed binder) MTLQELLREEALRRAEAEAFNYALELLAEKFPEQKEYLLDLAEEIESQIRSLSGVDVEDVRKFLDKEWAWVKELLAEHPAELAEVEAARAARLAELRAEVEAKVAA | 0.653
L24S (designed binder) MTLQELLREEALRRAEAEAFRYASELLAEKFPEQKEYLLDLAEEIESQIRSLSGVDVEDVRKFLDKEWAWVKELLAEHPAELAEVEAARAARLAELRAEVEAKVAA | 0.869
Q48E (designed binder) MTLQELLREEALRRAEAEAFRYALELLAEKFPEQKEYLLDLAEEIESEIRSLSGVDVEDVRKFLDKEWAWVKELLAEHPAELAEVEAARAARLAELRAEVEAKVAA | 0.142
M1L (designed binder) LTLQELLREEALRRAEAEAFRYALELLAEKFPEQKEYLLDLAEEIESQIRSLSGVDVEDVRKFLDKEWAWVKELLAEHPAELAEVEAARAARLAELRAEVEAKVAA | 0.653
A17E (designed binder) MTLQELLREEALRRAEEEAFRYALELLAEKFPEQKEYLLDLAEEIESQIRSLSGVDVEDVRKFLDKEWAWVKELLAEHPAELAEVEAARAARLAELRAEVEAKVAA | 0.229
L64E (designed binder) MTLQELLREEALRRAEAEAFRYALELLAEKFPEQKEYLLDLAEEIESQIRSLSGVDVEDVRKFEDKEWAWVKELLAEHPAELAEVEAARAARLAELRAEVEAKVAA | 5.31
E25K (designed binder) MTLQELLREEALRRAEAEAFRYALKLLAEKFPEQKEYLLDLAEEIESQIRSLSGVDVEDVRKFLDKEWAWVKELLAEHPAELAEVEAARAARLAELRAEVEAKVAA | 0.446
L75H (designed binder) MTLQELLREEALRRAEAEAFRYALELLAEKFPEQKEYLLDLAEEIESQIRSLSGVDVEDVRKFLDKEWAWVKELHAEHPAELAEVEAARAARLAELRAEVEAKVAA | 0.539
V71C (designed binder) MTLQELLREEALRRAEAEAFRYALELLAEKFPEQKEYLLDLAEEIESQIRSLSGVDVEDVRKFLDKEWAWCKELLAEHPAELAEVEAARAARLAELRAEVEAKVAA | 0.653

More lines, now with the values ahead:

apparent Kd (screen) [nM] | Binder
0.718 | R92C (designed binder) MTLQELLREEALRRAEAEAFRYALELLAEKFPEQKEYLLDLAEEIESQIRSLSGVDVEDVRKFLDKEWAWVKELLAEHPAELAEVEAARAACLAELRAEVEAKVAA
0.539 | A83S (designed binder) MTLQELLREEALRRAEAEAFRYALELLAEKFPEQKEYLLDLAEEIESQIRSLSGVDVEDVRKFLDKEWAWVKELLAEHPAELSEVEAARAARLAELRAEVEAKVAA
1.16 | A106C (designed binder) MTLQELLREEALRRAEAEAFRYALELLAEKFPEQKEYLLDLAEEIESQIRSLSGVDVEDVRKFLDKEWAWVKELLAEHPAELAEVEAARAARLAELRAEVEAKVAC
0.49 | A76R (designed binder) MTLQELLREEALRRAEAEAFRYALELLAEKFPEQKEYLLDLAEEIESQIRSLSGVDVEDVRKFLDKEWAWVKELLREHPAELAEVEAARAARLAELRAEVEAKVAA
0.79 | P79V (designed binder) MTLQELLREEALRRAEAEAFRYALELLAEKFPEQKEYLLDLAEEIESQIRSLSGVDVEDVRKFLDKEWAWVKELLAEHVAELAEVEAARAARLAELRAEVEAKVAA
0.593 | A105E (designed binder) MTLQELLREEALRRAEAEAFRYALELLAEKFPEQKEYLLDLAEEIESQIRSLSGVDVEDVRKFLDKEWAWVKELLAEHPAELAEVEAARAARLAELRAEVEAKVEA
0.718 | V104L (designed binder) MTLQELLREEALRRAEAEAFRYALELLAEKFPEQKEYLLDLAEEIESQIRSLSGVDVEDVRKFLDKEWAWVKELLAEHPAELAEVEAARAARLAELRAEVEAKLAA
0.593 | A88R (designed binder) MTLQELLREEALRRAEAEAFRYALELLAEKFPEQKEYLLDLAEEIESQIRSLSGVDVEDVRKFLDKEWAWVKELLAEHPAELAEVEARRAARLAELRAEVEAKVAA
0.593 | V104K (designed binder) MTLQELLREEALRRAEAEAFRYALELLAEKFPEQKEYLLDLAEEIESQIRSLSGVDVEDVRKFLDKEWAWVKELLAEHPAELAEVEAARAARLAELRAEVEAKKAA
0.653 | A90N (designed binder) MTLQELLREEALRRAEAEAFRYALELLAEKFPEQKEYLLDLAEEIESQIRSLSGVDVEDVRKFLDKEWAWVKELLAEHPAELAEVEAARNARLAELRAEVEAKVAA
0.539 | L93I (designed binder) MTLQELLREEALRRAEAEAFRYALELLAEKFPEQKEYLLDLAEEIESQIRSLSGVDVEDVRKFLDKEWAWVKELLAEHPAELAEVEAARAARIAELRAEVEAKVAA
